From paper PMC10637973 (The Journal of Biological Chemistry, 2023)
Changes are numbered by the printed parent chain. In names and notes the source's numbering stands.

B1: USP11-D1D2 (enzyme, human)
chain: MSEEDEDFKGQPGICGLTNLGNTCFMNSALQCLSNVPQLTEYFLNNCYLEELNFRNPLGMKGEIAEAYADLVKQAWSGHHRSIVPHVFKNKVGHFASQFLGYQQHDSQELLSFLLDGLHEDLNRVKKKEYVELCDAAGRPDQEVAQEAWQNHKRRNDSVIVDTFHGLFKSTLVCPDCGNVSVTFDPFCYLSVPLPASTSKPVRLQECIELFTTVETLEKENPWYCPSCKQHQLATKKLDLWMLPEILIIHLKRFSYTKFSREKLDTLVEFPIRDLDFSEFVIQPQNESNPELYKYDLIAVSNHYGGMRDGHYTTFACNKDSGQWHYFDDNSVSPVNENQIESKAAYVLFYQRQDVARRLL
notes: USP11, human, catalytic subdomain D1, residues Met295-Pro489; numbering of UniProt P51784; linker that replaces the insertion between subdomains D1 and D2; USP11, human, catalytic subdomain D2, residues Pro778-Leu937; also called USP11 catalytic core; USP11 catalytic domain; source: E. coli BL21(DE3)-Codon Plus, purified (Ni2+ HiTrap chelating column, SEC Superdex 200); not shown: His tag (from …)
B2: USP11-D1D2 R885G (enzyme, human)
chain: B1 chain with R308G
notes: USP11, human, catalytic subdomain D1, residues Met295-Pro489; numbering of UniProt P51784; linker that replaces the insertion between subdomains D1 and D2; USP11, human, catalytic subdomain D2, residues Pro778-Leu937; source: E. coli BL21(DE3)-Codon Plus, purified (Ni2+ HiTrap chelating column, SEC Superdex 200); not shown: His tag (from the Ni2+ chelating column)
B3: USP11-D1D2 H399Q (enzyme, human)
chain: B1 chain with H105Q
notes: as for B2
B4: USP11-D1D2 C318S/D886G (enzyme, human)
chain: B1 chain with C24S, D309G
notes: USP11, human, catalytic subdomain D1, residues Met295-Pro489; numbering of UniProt P51784; linker that replaces the insertion between subdomains D1 and D2; USP11, human, catalytic subdomain D2, residues Pro778-Leu937; Made from the USP11-D1D2 C318S template; source: E. coli BL21(DE3)-Codon Plus, purified (Ni2+ HiTrap chelating column, SEC Superdex 200); not shown: His tag (from the Ni2+ chelating …)

What was measured:
mono-ubiquitin = molecular target: T1, mono-ubiquitin (UniProt P0CG47 1-76); assay: ITC; ubiquitin samples (200–500 μM) titrated into USP11 samples (20–30 μM); 50 mM Tris-Cl, pH 7.5, 150 mM NaCl, 1% (v/v) glycerol; 25 °C; one-site binding model; conditions: both partners purified
T1 construct: ubiquitin (the reaction product, residues 1-76); also called product ubiquitin; source: E. coli BL21(DE3)-Codon Plus; purification of the ubiquitin constructs not described

linear diubiquitin = molecular target: T2, linear diubiquitin (UniProt P0CG47 1-76; P0CG47 1-76); assay: as above; conditions: both partners purified
T2 construct: ubiquitin, distal moiety (residues 1-76); ubiquitin, proximal moiety, its Met1 (Met77 of the chain) joined by a peptide bond to Gly76 of the distal moiety; source: E. coli BL21(DE3)-Codon Plus; purification of the ubiquitin constructs not described

| Binder | Kd (mono-ubiquitin) [nM] | binding result (linear diubiquitin) |
| --- | --- | --- |
| B1 | ~3500 |  |
| B2 | 1100 |  |
| B3 | ~2000 |  |
| B4 |  | binds |
